This is an account of results in the supplement of paper PMC7877785.

The data set is described as follows: self-splicing fitness, log relative to wild type (ln ratio); higher = more splicing; Tetrahymena group I intron in knt gene, E. coli kanamycin selection, DiMSum; sequences stand for … in CUCUCU…GGAGGGAAAAGUUAUCAGGCAUGCACCUGGUAGCUAGUCUUUAAACCAAUAGAUUGCAUCGGUUUAAAAGGCAAGACCGUCAAAUUGCGGGAAAGGGGUCAACAGCCGUUCAGUACCAAGUCUCAGGGGAAACUUUGAGAUGGCCUUGCAAAGGGUAUGGUAAUAAGCUGACGGACAUGGUCCUAACCACGCAGCCAAGUCCUAAGUCAACAGAUCUUCUGUUGAUAUGGAUGCAGUUCACAGACUAAAUGUCGGUCGGGGAAGAUGUAUUCUUCUCAUAAGAUAUAGUCGGACCUCUCCUUAAUGGGAGCUAGCGGAUGAAGUGAUGCAACACUGGAGCCGCUGGGAACUAAUUUGUAUGCGAAAGUAUAUUGAUUAGUUUUGGAGUACUCGUGGUCG
Put shortly: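 Fitness was computed with DiMSum as the error-weighted combination of replicate fold changes, kanamycin versus none, each normalised to wild type. The library randomised all eight intron nucleotides of the P1ex region, with the intron placed in the knt kanamycin-resistance gene on pET-22b(+) in E. coli BL21(DE3). Six replicate transformations were grown overnight at 37°C or 30°C on LB agar with or without 25 μg/mL kanamycin, plus 100 μg/mL carbenicillin, 50 μM IPTG and 0.2% rhamnose. Pooled colonies were amplicon-sequenced on an Illumina HiSeq 2500.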

± gives the uncertainty stated by the source.

In the case of AGGUAGCAAUAUUACGCGAG, the “self-splicing fitness (ln)” value reads like this: (30 °C) -1.32 ± 0.014; (37 °C) -0.6 ± 0.032.

As for UGAGAGCAAUAUUACGAUCA, the “self-splicing fitness (ln)” value (30 °C) is -1.62 ± 0.22 and the “self-splicing fitness (ln)” value (37 °C) is -1.1 ± 0.25.

For GAGGAGCAAUAUUACGUGCC, the “self-splicing fitness (ln)” value (30 °C) is -3.24 ± 0.26 and the “self-splicing fitness (ln)” value (37 °C) is -2.41 ± 0.28.

Turning to CACCAGCAAUAUUACGAAUU, the “self-splicing fitness (ln)” value by setting is: (30 °C) -3.18 ± 0.15; (37 °C) -2.92 ± 0.17.

Take UAGCAGCAAUAUUACGAGUC: the “self-splicing fitness (ln)” value by setting is: (30 °C) -4.81 ± 0.34; (37 °C) -2.22 ± 0.22.

For GGGUAGCAAUAUUACGCGUG, the “self-splicing fitness (ln)” value by setting is: (30 °C) -0.787 ± 0.13; (37 °C) 0.175 ± 0.12.

CGCUAGCAAUAUUACGGCUU: the “self-splicing fitness (ln)” value is, setting by setting: (30 °C) -0.961 ± 0.081; (37 °C) -0.559 ± 0.1.

With AGAAAGCAAUAUUACGUCAC, the “self-splicing fitness (ln)” value runs as follows: (30 °C) -3.52 ± 0.3; (37 °C) -2.61 ± 0.38.

For the sequence AGAGAGCAAUAUUACGGAAU, the “self-splicing fitness (ln)” value (30 °C) is -3.36 ± 0.32 and the “self-splicing fitness (ln)” value (37 °C) is -1.79 ± 0.44.

With AGGUAGCAAUAUUACGUAAC, the “self-splicing fitness (ln)” value was -2.092 ± 0.019 (30 °C) and -1.18 ± 0.035 (37 °C).

Consider UACAAGCAAUAUUACGAUGG, for which the “self-splicing fitness (ln)” value reads like this: (30 °C) -1.37 ± 0.079; (37 °C) -0.712 ± 0.085.

On to UUGAAGCAAUAUUACGCAGU, for which the “self-splicing fitness (ln)” value runs as follows: (30 °C) -1.2 ± 0.3; (37 °C) -1.54 ± 0.32.

For the sequence UCUGAGCAAUAUUACGAAGG, the “self-splicing fitness (ln)” value (30 °C) was -3.05 ± 0.21 and the “self-splicing fitness (ln)” value (37 °C) was -0.953 ± 0.15.

In the case of AGUAAGCAAUAUUACGGACC, the “self-splicing fitness (ln)” value reads like this: (30 °C) -0.0938 ± 0.13; (37 °C) 0.0977 ± 0.16.

As for GGUAAGCAAUAUUACGUUCG, the “self-splicing fitness (ln)” value is -0.34 ± 0.15 (30 °C) and -0.4 ± 0.18 (37 °C).

For UGGUAGCAAUAUUACGACUA, the “self-splicing fitness (ln)” value is -0.227 ± 0.16 (30 °C) and -0.296 ± 0.2 (37 °C).

With CGAUAGCAAUAUUACGAACU, the “self-splicing fitness (ln)” value (30 °C) was -0.913 ± 0.097 and the “self-splicing fitness (ln)” value (37 °C) was -0.465 ± 0.13.

On to ACGAAGCAAUAUUACGAGGA, for which the “self-splicing fitness (ln)” value (30 °C) is -3.29 ± 0.44 and the “self-splicing fitness (ln)” value (37 °C) is -2 ± 0.29.

With CAUGAGCAAUAUUACGUUGU, the “self-splicing fitness (ln)” value was -4.13 ± 0.29 (30 °C) and -3.57 ± 0.19 (37 °C).

Take CCUAAGCAAUAUUACGUAUU: the “self-splicing fitness (ln)” value runs as follows: (30 °C) -4.79 ± 0.39; (37 °C) -3.07 ± 0.2.

As to CUAAAGCAAUAUUACGAGUC, the “self-splicing fitness (ln)” value runs as follows: (30 °C) -4.51 ± 0.3; (37 °C) -2.96 ± 0.31.

Turning to CCCAAGCAAUAUUACGAAAA, the “self-splicing fitness (ln)” value runs as follows: (30 °C) -2.96 ± 0.21; (37 °C) -2.1 ± 0.22.

Consider CUCGAGCAAUAUUACGCGCA, for which the “self-splicing fitness (ln)” value (30 °C) was -2.79 ± 0.48.

Take CUUCAGCAAUAUUACGGGAA: the “self-splicing fitness (ln)” value runs as follows: (30 °C) -1.22 ± 0.097; (37 °C) -2.08 ± 0.1.

Take AAUAAGCAAUAUUACGUCGA: the “self-splicing fitness (ln)” value reads like this: (30 °C) -1.38 ± 0.099; (37 °C) -0.488 ± 0.12.

For the sequence GGCGAGCAAUAUUACGUAGA, the “self-splicing fitness (ln)” value is -2.07 ± 0.093 (30 °C) and -1.27 ± 0.12 (37 °C).

Take AAAGAGCAAUAUUACGGACU: the “self-splicing fitness (ln)” value (30 °C) is -1.36 ± 0.12 and the “self-splicing fitness (ln)” value (37 °C) was -1.59 ± 0.16.

With GUAGAGCAAUAUUACGUCCU, the “self-splicing fitness (ln)” value runs as follows: (30 °C) -1.1 ± 0.2; (37 °C) -0.4 ± 0.22.

As for CUUCAGCAAUAUUACGGGUC, the “self-splicing fitness (ln)” value runs as follows: (30 °C) -3.39 ± 0.28; (37 °C) -0.947 ± 0.25.

For UUCGAGCAAUAUUACGUGGG, the “self-splicing fitness (ln)” value runs as follows: (30 °C) -2.45 ± 0.12; (37 °C) -2.75 ± 0.19.

For AAAUAGCAAUAUUACGGGCG, the “self-splicing fitness (ln)” value (30 °C) was -1.29 ± 0.08 and the “self-splicing fitness (ln)” value (37 °C) was -0.403 ± 0.096.
